{
  "source": "paper doi:10.1101/2025.03.13.643050",
  "data": [
    {"target": "FG repeat domain of 669 residues with non-charged spacers and 36 FSFG motifs", "experiment": "FG phase partitioning", "units": {"fold more effective entry than wild-type CLPs": "fold"}, "values": [
      {"substance": "conical CLPs of HIV-1 CA G89V, filled with sinGFP4a (complex)", "fold more effective entry than wild-type CLPs": 4}
    ]},
    {"target": "prf.GLFG_(52×12), Nup98-type FG domain comprising 52 perfect 12mer GLFG repeat units", "experiment": "FG phase partitioning", "units": {"fold reduction of partitioning against wild type": "fold", "partitioning relative to the wild-type level": "%", "reduction in partitioning against wild type": "%"}, "values": [
      {"substance": "20 nm T1 pentamer-only capsid spheres of HIV-1 CA G60A, G61P, labelled with ~15% CA-EGFP (complex)", "partition coefficient": 750},
      {"substance": "40 nm capsid spheres of HIV-1 CA N21C, A22C, labelled with ~15% CA-EGFP (complex)", "partition coefficient": 1000},
      {"substance": "EGFP", "partition coefficient": "< 0.1"},
      {"substance": "conical CLPs (capsid-like particles) of HIV-1 CA wild-type, labelled with ~15% CA-EGFP (complex)", "partition coefficient": 1000},
      {"substance": "conical CLPs of HIV-1 CA A88E, filled with sinGFP4a (complex)", "fold reduction of partitioning against wild type": "> 10"},
      {"substance": "conical CLPs of HIV-1 CA A92E, filled with sinGFP4a (complex)", "fold reduction of partitioning against wild type": "> 10", "partitioning relative to the wild-type level": 5},
      {"substance": "conical CLPs of HIV-1 CA G94D, filled with sinGFP4a (complex)", "partitioning relative to the wild-type level": 5},
      {"substance": "conical CLPs of HIV-1 CA H87E, filled with sinGFP4a (complex)", "fold reduction of partitioning against wild type": 15},
      {"substance": "conical CLPs of HIV-1 CA H87Q, filled with sinGFP4a (complex)", "reduction in partitioning against wild type": 50},
      {"substance": "conical CLPs of HIV-1 CA I91E, filled with sinGFP4a (complex)", "fold reduction of partitioning against wild type": "> 10"},
      {"substance": "conical CLPs of HIV-1 CA M96E, filled with sinGFP4a (complex)", "fold reduction of partitioning against wild type": "> 10"},
      {"substance": "conical CLPs of HIV-1 CA R132K, filled with sinGFP4a (complex)", "reduction in partitioning against wild type": 50},
      {"substance": "conical CLPs of HIV-1 CA V86E, filled with sinGFP4a (complex)", "fold reduction of partitioning against wild type": "> 10"},
      {"substance": "mCherry", "partition coefficient": "< 0.1"}
    ]}
  ]
}
